The source of these data is US20210347832.

For one series, the system named is T1, C16-CathB-SIINFEKL
T1 sequence: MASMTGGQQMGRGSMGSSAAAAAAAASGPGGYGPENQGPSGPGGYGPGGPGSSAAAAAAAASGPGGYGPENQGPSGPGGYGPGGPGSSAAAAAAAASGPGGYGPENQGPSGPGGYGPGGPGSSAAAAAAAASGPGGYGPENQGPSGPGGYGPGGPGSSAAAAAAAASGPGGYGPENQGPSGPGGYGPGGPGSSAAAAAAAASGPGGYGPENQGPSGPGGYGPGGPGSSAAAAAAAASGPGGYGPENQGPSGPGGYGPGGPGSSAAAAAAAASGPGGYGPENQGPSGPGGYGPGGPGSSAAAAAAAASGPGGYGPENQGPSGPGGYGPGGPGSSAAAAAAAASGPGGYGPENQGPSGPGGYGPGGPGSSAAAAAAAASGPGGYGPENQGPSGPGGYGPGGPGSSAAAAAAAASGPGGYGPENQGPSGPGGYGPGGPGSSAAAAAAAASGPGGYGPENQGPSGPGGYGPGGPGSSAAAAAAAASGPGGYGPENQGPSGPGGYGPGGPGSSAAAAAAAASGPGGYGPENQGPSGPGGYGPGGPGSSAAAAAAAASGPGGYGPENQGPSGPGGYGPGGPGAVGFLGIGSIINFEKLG

A further series deals with T2, C16-CathS-SIINFEKL
T2 sequence: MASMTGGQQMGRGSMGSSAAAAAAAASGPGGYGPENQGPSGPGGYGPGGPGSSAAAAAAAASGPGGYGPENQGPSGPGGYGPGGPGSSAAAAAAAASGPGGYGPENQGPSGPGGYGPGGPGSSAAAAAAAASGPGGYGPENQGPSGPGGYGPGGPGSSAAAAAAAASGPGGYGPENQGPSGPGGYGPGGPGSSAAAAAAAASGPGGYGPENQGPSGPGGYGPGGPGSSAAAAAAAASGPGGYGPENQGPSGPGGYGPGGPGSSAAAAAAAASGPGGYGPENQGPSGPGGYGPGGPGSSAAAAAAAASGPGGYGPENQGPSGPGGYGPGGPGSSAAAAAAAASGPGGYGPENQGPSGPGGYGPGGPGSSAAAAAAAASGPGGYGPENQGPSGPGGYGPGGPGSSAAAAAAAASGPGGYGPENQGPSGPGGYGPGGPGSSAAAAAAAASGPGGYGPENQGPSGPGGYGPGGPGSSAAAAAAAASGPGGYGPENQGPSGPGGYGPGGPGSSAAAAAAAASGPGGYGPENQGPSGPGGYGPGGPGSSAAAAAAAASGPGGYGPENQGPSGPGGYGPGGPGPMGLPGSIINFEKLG

cathepsin B enzyme: the “release of cleaved SIINFEKL peptide from particles (RP-HPLC, 96 h)” value in the series with C16-CathB-SIINFEKL and in the series on C16-CathS-SIINFEKL was “Cathepsin S enzyme shows the better cleavage of SIINFEKL (SEQ ID NO: 11) peptides from both C16 hybrid protein particles than cathepsin B” each time.
Take cathepsin S enzyme: the “release of cleaved SIINFEKL peptide from particles (RP-HPLC, 1-96 h)” value with C16-CathB-SIINFEKL is “Cathepsin S also cleaves SIINFEKL (SEQ ID NO: 11) peptides from particles designed for cathepsin B release, but slower and in a lesser extent”; with C16-CathS-SIINFEKL it was “Cathepsin S enzyme shows the better cleavage of SIINFEKL (SEQ ID NO: 11) peptides from both hybrid polypeptide particles”.
